{
  "source": "patent US20220275100A1",
  "about": "(JIANGSU HENGRUI MEDICINE, published 2022)",
  "binders": {"B1": {"name": "ch-009 (antibody, human IgG1, V domains shown)", "VH": "EFQLQQSGPELVKPGASVKISCKASGYSFTDYNLNWVKQSNGKSLEWIGVINPKYDAINYNQKFKDKATLTVDQSSSTAYMQLSSLTSEDSAVYYCAREGWGKALDYWGPGTSVIVSS", "VL": "DFVLTQSPATLSVTPGDSVSLSCRASQSIYTNLHWYQQKSHESPRLLIKYASQSISGIPSRFSGSGSGTDFTLSINSVETEDSGMYFCQQSNSWPLTFGAGTKLELK", "notes": "also called chimeric antibody of hybridoma clone m009"}, "B2": {"name": "ch-011 (antibody, human IgG1, V domains shown)", "VH": "EVQLVESGGGLVKPGGSLKLSCAASGFTFSDYGMHWVRQAPEKGLEWVAFISSGSSSIYYADTVKGRFTISRDNAKNTLFLQMTSLRSEDTAMYSCARNYVSSYGYFDYWGQGTTLTVSS", "VL": "DIVMTQSPASLAVSLGQRATISCRASENVDNYGISFMHWYQQKPGQPPKLLIYRASNLESGIPARFSGSGSRTDFTLTINPVETDDVATYYCQQSNKDPLTFGSGTKLEIK", "notes": "also called chimeric antibody of hybridoma clone m011"}, "B3": {"name": "h160-07 (antibody, human IgG1, kappa, V domains shown)", "VH": "EVQLVESGGGLVQPGGSLRLSCAASGFTFSDYGMHWVRQAPGKGLEWIAFISTGSSNIYYVDKVKGRFTISRDNAKNTLYLQMTSLRAEDTAVYYCARNYVSSYGYFDYWGQGTTVTVSS", "VL": "DIVLTQSPASLAVSLGERATINCRASESVDNYGISFMHWYQQKPGQPPKLLIYRASNLESGVPARFSGSGSRTDFTLTISSLQAEDVAVYYCQQTNKDPLTFGGGTKVEIKR"}, "B4": {"name": "h011-06 (antibody, human IgG1, kappa, V domains shown)", "VH": "B2 VH with K13Q, K19R, E42G, N77S, T78S, S88A, M93V, L116V", "VL": "B3 VL with L4M, A9D, S28N, V62I, A64D, V89T, T95S"}, "B5": {"name": "ch-160 (antibody, human IgG1, V domains shown)", "VH": "B2 VH with A23V, V48I, S53T, S57N, A61V, T63K, S95Y", "VL": "B2 VL with M4L, I21V, N28S, S95T, S104G, I110L", "notes": "also called chimeric antibody of hybridoma clone m160"}, "B6": {"name": "hu11E (antibody, human IgG1, kappa)", "heavy": "not shown", "light": "DIVMTQSPDSLAVSLGERATINCRASENVDNYGISFMHWYQQKPGQPPKLLIYRASNLESGVPDRFSGSGSGTDFTLTISSLQAEDVAVYYCQQSNKDPLTFGGGTKVEIKRTVAAPSVFIFPPSDEQLKSGTASVVCLLNNFYPREAKVQWKVDNALQSGNSQESVTEQDSKDSTYSLSSTLTLSKADYEKHKVYACEVTHQGLSSPVTKSFNRGEC", "notes": "Humanized, human IgG1-E333A / kappa; also called h011-01E"}, "B7": {"name": "h160-08 (antibody, human IgG1, kappa, V domains shown)", "VH": "B3 VH", "VL": "B3 VL with N22S, V62I"}, "B8": {"name": "hu160E (antibody, human IgG1, kappa)", "heavy": "not shown", "light": "B6 light with D9A, N28S, S95T", "notes": "Humanized, human IgG1-E333A / kappa; also called h160-01E"}, "B9": {"name": "hu9E (antibody, human IgG1, kappa)", "heavy": "not shown", "light": "EIVLTQSPATLSLSPGERATLSCRASQSIYTNLHWYQQKPGQSPRLLIKYASQSISGIPARFSGSGSGTDFTLTISSLEPEDFAVYYCQQSNSWPLTFGGGTKVEIKRTVAAPSVFIFPPSDEQLKSGTASVVCLLNNFYPREAKVQWKVDNALQSGNSQESVTEQDSKDSTYSLSSTLTLSKADYEKHKVYACEVTHQGLSSPVTKSFNRGEC", "notes": "Humanized, human IgG1-E333A / kappa; also called h009-07E"}},
  "key": {"[1]": {"target": "T1, Fusion protein of CD38 extracellular domain with His tag: CD38-ECD-His (human, UniProt P28907 43-300)", "T1 construct": "unlabelled analyte in Biacore; also called human CD38-ECD-His; Human CD38-His", "assay": "SPR (Biacore), antibody captured by anti-human Fc, CD38-ECD-His as analyte;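 also: human CD38-ECD-His flowed over the captured antibody with the signal tracked in real time, and association and dissociation curves were fitted to derive the affinity values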", "description": "(§1) Then the human CD38-ECD-His antigen passed through the surface of the chip, and a real-time detection for the reaction signal was performed with Biacore instrument. The resulting binding and dissociation curves were fitted to calculate the affinity values. After the dissociation of each cycle was completed in the experiment, the biochip was washed and regenerated with the regeneration solution supplied in the Human Fc Capture Kit (GE)."}, "[2]": {"target": "T1, Fusion protein of CD38 extracellular …", "assay": "cell-based or functional assay"}, "[3]": {"target": "T2, full-length human CD38 on CHO-S cells (CD38-FL-CHOS) (human, UniProt P28907 1-300)", "T2 construct": "whole, on cells; also called natural CD38 present on the cell surface", "assay": "flow cytometry on CD38-FL-CHO-S cells"}, "[4]": {"target": "T1, Fusion protein of CD38 extracellular …", "assay": "ELISA, biotin-labeled CD38-ECD-His on streptavidin-coated plate", "description": "The affinity of the anti-CD38 antibodies were determined by the amount of the antibodies binding to CD38 immobilized on the ELISA plate. […] The plate was washed again and tetramethyl benzidine solution was added for color reaction. Finally, stop solution was added. OD450 was measured on a microplate reader and EC50 value was calculated."}, "[5]": {"target": "T1, Fusion protein of CD38 extracellular …", "assay": "SPR (Biacore), antibody captured as ligand, Human CD38-His as analyte", "description": "as §1"}},
  "note": "Residue numbers refer to the chain shown, from its start. Names may count otherwise.",
  "data": [
    {"binder": "B1", "values": [
      {"measurement": "Kd", "setting": "[1]", "value": 0.234, "unit": "nM"},
      {"measurement": "koff", "setting": "[1]", "value": 0.000477, "unit": "s⁻¹"},
      {"measurement": "kon", "setting": "[1]", "value": "2.04e+06", "unit": "M⁻¹ s⁻¹"}
    ]},
    {"binder": "B2", "values": [
      {"measurement": "Kd", "setting": "[1]", "value": 0.199, "unit": "nM"},
      {"measurement": "koff", "setting": "[1]", "value": 0.00148, "unit": "s⁻¹"},
      {"measurement": "kon", "setting": "[1]", "value": "7.46e+06", "unit": "M⁻¹ s⁻¹"}
    ]},
    {"binder": "B3", "values": [
      {"measurement": "Kd", "setting": "[1]", "value": 0.0748, "unit": "nM"},
      {"measurement": "koff", "setting": "[1]", "value": 0.000182, "unit": "s⁻¹"},
      {"measurement": "kon", "setting": "[1]", "value": "2.43e+06", "unit": "M⁻¹ s⁻¹"}
    ]},
    {"binder": "B4", "values": [
      {"measurement": "Kd", "setting": "[1]", "value": 0.3, "unit": "nM"},
      {"measurement": "koff", "setting": "[1]", "value": 0.00201, "unit": "s⁻¹"},
      {"measurement": "kon", "setting": "[1]", "value": "6.71e+06", "unit": "M⁻¹ s⁻¹"}
    ]},
    {"binder": "B5", "values": [
      {"measurement": "Kd", "setting": "[1]", "value": 0.062, "unit": "nM"},
      {"measurement": "koff", "setting": "[1]", "value": 0.00017, "unit": "s⁻¹"},
      {"measurement": "kon", "setting": "[1]", "value": "2.74e+06", "unit": "M⁻¹ s⁻¹"}
    ]},
    {"binder": "B6", "values": [
      {"measurement": "IC50 (µg/ml), inhibition of CD38 enzyme activity (cGDPR production from NGD)", "setting": "[2]", "value": 1.83, "unit": "µg/mL"},
      {"measurement": "Imax (Maximum inhibition rate %)", "setting": "[2]", "value": 44.3, "unit": "%"},
      {"measurement": "EC50", "setting": "[3]", "value": 0.481, "unit": "µg/mL"},
      {"measurement": "EC50", "setting": "[4]", "value": 0.0276, "unit": "µg/mL"},
      {"measurement": "Kd", "setting": "[5]", "value": 0.568, "unit": "nM"},
      {"measurement": "koff", "setting": "[5]", "value": 0.00117, "unit": "s⁻¹"},
      {"measurement": "kon", "setting": "[5]", "value": "2.07e+06", "unit": "M⁻¹ s⁻¹"}
    ]},
    {"binder": "B7", "values": [
      {"measurement": "Kd", "setting": "[1]", "value": 0.0782, "unit": "nM"},
      {"measurement": "koff", "setting": "[1]", "value": 0.000179, "unit": "s⁻¹"},
      {"measurement": "kon", "setting": "[1]", "value": "2.29e+06", "unit": "M⁻¹ s⁻¹"}
    ]},
    {"binder": "B8", "values": [
      {"measurement": "IC50 (µg/ml), inhibition of CD38 enzyme activity (cGDPR production from NGD)", "setting": "[2]", "value": 1.2, "unit": "µg/mL"},
      {"measurement": "Imax (Maximum inhibition rate %)", "setting": "[2]", "value": 47.7, "unit": "%"},
      {"measurement": "EC50", "setting": "[3]", "value": 0.474, "unit": "µg/mL"},
      {"measurement": "EC50", "setting": "[4]", "value": 0.028, "unit": "µg/mL"},
      {"measurement": "Kd", "setting": "[5]", "value": 0.0585, "unit": "nM"},
      {"measurement": "koff", "setting": "[5]", "value": 0.000115, "unit": "s⁻¹"},
      {"measurement": "kon", "setting": "[5]", "value": "1.96e+06", "unit": "M⁻¹ s⁻¹"}
    ]},
    {"binder": "B9", "values": [
      {"measurement": "IC50 (µg/ml), inhibition of CD38 enzyme activity (cGDPR production from NGD)", "setting": "[2]", "value": 1.56, "unit": "µg/mL"},
      {"measurement": "Imax (Maximum inhibition rate %)", "setting": "[2]", "value": 89.6, "unit": "%"},
      {"measurement": "EC50", "setting": "[3]", "value": 0.402, "unit": "µg/mL"},
      {"measurement": "EC50", "setting": "[4]", "value": 0.0259, "unit": "µg/mL"},
      {"measurement": "Kd", "setting": "[5]", "value": 1.31, "unit": "nM"},
      {"measurement": "koff", "setting": "[5]", "value": 0.00138, "unit": "s⁻¹"},
      {"measurement": "kon", "setting": "[5]", "value": "1.05e+06", "unit": "M⁻¹ s⁻¹"}
    ]}
  ]
}
